{"source": "paper PMC6933771", "molecular_target": "human prothrombin (human)", "data": [{"substance": "staphylocoagulase (natural protein)", "values": [{"measurement": "amidolytic activity of the SCG-PT complex on the chromogenic thrombin substrate S-2238, specific activity relative to human thrombin (9.1 IU/nmol)", "value": 5.5, "unit": "IU/nmol"}, {"measurement": "clotting activity of the SCG-PT complex in human plasma, specific activity relative to human thrombin", "value": 4.2, "unit": "IU/nmol"}, {"measurement": "clotting activity of the SCG-PT complex on purified human fibrinogen (3.0 g/L), specific activity relative to human thrombin", "value": 3.6, "unit": "IU/nmol"}]}]}
